Assay [1] has as its target T1, HPV45 E7 protein, recombinant (His-TEV-E7 fusion from E. coli) (Human Papilloma Virus type 45 (HPV45), UniProt P21736 1-106, CKII phosphorylation of the consensus site serines in the antigen preparation of Example 2; biotin on primary amines in the SPR assay).
T1 construct: mature; also called VE7_HPV45; not shown: N-terminal 6x Histidine tag and TEV cleavage site of the vector
T1 sequence: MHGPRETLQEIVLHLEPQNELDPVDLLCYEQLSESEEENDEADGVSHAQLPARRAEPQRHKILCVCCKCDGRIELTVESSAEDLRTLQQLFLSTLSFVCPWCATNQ
Description: ELISA and dot-blot, semiquantitative crossreactivity. (In an ELISA, binding on a coated surface is turned into a signal by an enzyme label.)

The target of assay [2] is T2, HPV51 E7 protein, recombinant (His-TEV-E7 fusion from E. coli) (Human Papilloma Virus type 51 (HPV51), UniProt P26558 1-101, CKII phosphorylation of the consensus site serines in the antigen preparation of Example 2).
T2 construct: mature; also called VE7_HPV51; not shown: N-terminal 6x Histidine tag and TEV cleavage site of the vector
T2 sequence: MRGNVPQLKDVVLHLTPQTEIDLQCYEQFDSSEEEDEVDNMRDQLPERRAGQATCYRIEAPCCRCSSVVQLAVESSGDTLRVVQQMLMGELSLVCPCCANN
Described as above.

Assay [3] has as its target T3, HPV56 E7 protein, recombinant (His-TEV-E7 fusion from E. coli) (Human Papilloma Virus type 56 (HPV56), UniProt P36833 1-105, CKII phosphorylation of the consensus site serines in the antigen preparation of Example 2).
T3 construct: mature; also called VE7_HPV56; not shown: N-terminal 6x Histidine tag and TEV cleavage site of the vector
T3 sequence: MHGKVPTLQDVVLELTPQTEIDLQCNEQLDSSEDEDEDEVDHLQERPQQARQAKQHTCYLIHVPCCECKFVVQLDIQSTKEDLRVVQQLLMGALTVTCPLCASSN
Described as above.

Assay [4] addresses T4, HPV39 E7 protein, recombinant (His-TEV-E7 fusion from E. coli) (Human Papilloma Virus type 39 (HPV39), UniProt P24837 1-109, CKII phosphorylation of the consensus site serine in the antigen preparation of Example 2).
T4 construct: mature; also called VE7_HPV39; not shown: N-terminal 6x Histidine tag and TEV cleavage site of the vector
T4 sequence: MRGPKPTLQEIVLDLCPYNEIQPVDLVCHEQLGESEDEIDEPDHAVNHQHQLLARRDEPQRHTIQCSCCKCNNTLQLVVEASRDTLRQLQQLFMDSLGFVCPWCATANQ
The description is as above.

The target in assay [5] is T5, HPV6 E7 protein (low risk type), recombinant (His-TEV-E7 fusion from E. coli) (Human Papilloma Virus type 6 (HPV6), UniProt Q84292 1-98).
T5 construct: mature; the only HPV6 entry in the list of constructs is VE7_HPV6A; also called VE7_HPV6A; not shown: N-terminal 6x Histidine tag and TEV cleavage site of the vector
T5 sequence: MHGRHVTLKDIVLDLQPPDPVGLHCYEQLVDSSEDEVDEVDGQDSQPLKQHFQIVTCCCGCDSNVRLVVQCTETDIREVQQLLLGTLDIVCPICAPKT
Description: ELISA and dot-blot.

The target of assay [6] is T6, HPV38 E7 protein (beta-papillomavirus), recombinant (His-TEV-E7 fusion from E. coli) (Human Papilloma Virus type 38 (HPV38), UniProt Q80908 1-100).
T6 construct: mature; also called HPVE7 38; VE7_HPV38; not shown: N-terminal 6x Histidine tag and TEV cleavage site of the vector
T6 sequence: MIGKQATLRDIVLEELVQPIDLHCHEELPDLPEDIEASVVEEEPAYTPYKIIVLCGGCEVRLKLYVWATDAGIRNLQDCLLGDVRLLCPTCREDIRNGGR
Put plainly: ELISA and dot-blot.

Assay [7] concerns the target T7, HPV5 E7 protein (beta-papillomavirus), recombinant (His-TEV-E7 fusion from E. coli) (Human Papilloma Virus type 5 (HPV5), UniProt P06932 1-103).
T7 construct: mature; also called VE7_HPV05; not shown: N-terminal 6x Histidine tag and TEV cleavage site of the vector
T7 sequence: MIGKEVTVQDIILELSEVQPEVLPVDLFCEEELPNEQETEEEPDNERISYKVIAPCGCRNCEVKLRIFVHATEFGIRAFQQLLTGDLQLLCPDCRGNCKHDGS
Description: ELISA and dot-blot.

For assay [8], the target named is T8, HPV11 E7 protein (low risk type), recombinant (His-TEV-E7 fusion from E. coli) (Human Papilloma Virus type 11 (HPV11), UniProt P04020 1-98).
T8 construct: mature; also called VE7_HPV11; not shown: N-terminal 6x Histidine tag and TEV cleavage site of the vector
T8 sequence: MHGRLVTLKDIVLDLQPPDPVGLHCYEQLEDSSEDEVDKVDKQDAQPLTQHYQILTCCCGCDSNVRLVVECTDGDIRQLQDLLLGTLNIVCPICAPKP
Description: ELISA and dot-blot.

Assay [9] has as its target T9, HPV52 E7 protein, recombinant (His-TEV-E7 fusion from E. coli) (Human Papilloma Virus type 52 (HPV52), UniProt P36831 1-99, CKII phosphorylation of the consensus site serines in the antigen preparation of Example 2).
T9 construct: mature; also called VE7_HPV52; not shown: N-terminal 6x Histidine tag and TEV cleavage site of the vector
T9 sequence: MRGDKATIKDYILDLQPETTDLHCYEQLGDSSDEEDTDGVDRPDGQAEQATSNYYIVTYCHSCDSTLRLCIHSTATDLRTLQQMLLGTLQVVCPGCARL
Put plainly: ELISA and dot-blot, semiquantitative crossreactivity (++ strong positive).

Assay [10] addresses T10, HPV35 E7 protein, recombinant (His-TEV-E7 fusion from E. coli) (Human Papilloma Virus type 35 (HPV35), UniProt P27230 1-99, CKII phosphorylation of the consensus site serines in the antigen preparation of Example 2).
T10 construct: mature; also called VE7_HPV35; not shown: N-terminal 6x Histidine tag and TEV cleavage site of the vector
T10 sequence: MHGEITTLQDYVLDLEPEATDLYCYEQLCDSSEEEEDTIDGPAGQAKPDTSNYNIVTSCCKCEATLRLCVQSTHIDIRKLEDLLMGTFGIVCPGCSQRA
Description: ELISA and dot-blot, semiquantitative crossreactivity (+ weak interaction).

B1: ACAB161 (antibody, IgG2a, V domains shown)
VH: EVMLVESGGGLVKPGGSLKLSCAASGFTFSRYTMSWVRQTPEKRLEWVATISSGGTNTNYTDSVKGRFTISRDNAKNNLYLQMSSLRSEDTALYYCTRGVRRGDGYAMDYWGQGTSVTVSS
VL: DIVLTQAAPSVPVTPGESVSISCRSTKSLLHSNGNTYLYWFLQRPGQSPQALIYRTSNLASGVPDRFSGSGSGTAFTLRISRVEAEDVGVYYCMQHLEYPLTFGAGTKLELKR
notes: the printed entries run on into the first residues of the constant domains; also called HPV16E7 IgG2a antibody ACAB161
As for B1, the binding result in assay [1], in assay [2], in assay [3], in assay [4], in [5] and in assay [6] was “no binding” in each case. For the same molecule, the binding result is listed as “no binding” in assay [7], “no binding” in [8], “binds” in [9] and “binds” in [10].

B2: ACAB452 (antibody, IgG1, V domains shown)
VH: DVQLQESGPGLVKPSQSLSLTCTVTGYSITSDYAWNWIRQFPGNKLEWVGYITYSGSTNYNPSLKSRISITRDTSKNQFFLQFNSVTSEDTATYFCARSWFAYWGQGTLVTVSS
VL: DIVMTQTPLSLPVSLGDQASISCRSSQSLVHSNGNTYLHWFLQKPGQSPKLLIYKVSNRFSGVPDRFSGSGSGTDFTLKISRVEAEDLGVYFCLQSAHVPLTFGAGTKLELTR
notes: also called HPV45E7 IgG1 antibody ACAB452
Take B2: the binding result in assay [5] is reported as “no binding”; in [6], “no binding”; in assay [7], “no binding”; in assay [8], “no binding”; in assay [10], “binds”.

B3: ACAB164 (antibody, V domains shown)
VH: EVQLQQSGLALVQPGASVKISCRTSGYTFTEYTLHWVKQSHGKSLEWIGGINPNNGSPKYNQKFKGKATLTVDKSSSTAYMELRSLTSEDSAVYYCARLDINSFFDYWGQGTTLTVSS
VL: DVVMTQSPLSLPVSLGDQASISCRSSQSLVHSNGNTYLQWYLQKPGQSPKLLIYKLSNRFSGVPDRFSGSGSGTDFTLKISRVEAEDLGVYSCSQTTHVPPTFGGGTKLEIKR
notes: the printed entries run on into the first residues of the constant domains; also called HPV16E7 IgG2a antibody ACAB164
Turning to B3, the binding result in assay [1], in assay [2], in assay [3], in assay [4], in assay [5] and in [6] was “no binding” throughout. Moreover, the binding result in [7] is on record as “no binding”; in [8], “no binding”; in [9] it was “binds”.
